The record followed here is a protein production outcome set (Wang et al. 2014).

The nature of the data set: label from the status in PepcDB records.

With “MTENVVCTGAVNAVKEVWEKRIKKLNEDLKREKEFQHKLVRIWEERVSLTKLREKVTREDGRVILKIEKEEWKTLPSSLLKLNQLQEWQLHRTGLLKIPEFIGRFQNLIVLDLSRNTISEIPPGIGLLTRLQELILSYNKIKTVPKELSNCASLEKLELAVNRDICDLPQELSNLLKLTHLDLSMNDFTTIPLAVLNMPALEWLDMGSNKLEQLPDTIERMQNLHTLWLQRNEITCLPQTISNMKNLGTLVLSNNKLQDIPVCMEEMANLRFVNFRDNPLKLKVSLPPSEGTDEEEERELFGLQFMHTYIQESRRRADHQVNGSTTLPISINTDG”, the protein production result is recorded as “not failed”.
To “MTEPANNHPSPPPQNWLFKWWNSLNAITRLLVLVLGAPLMVLNARALSSIFGYFESLFVISLIASVIAFLLNYPVAWLEKQGAKRFVAASFVFLTALIIFTALGVTLIPLALSQAQQLVARLPDWLDSGQKQLVLLDQKAEILGWPVNFDGLIPQINSRLAAELQNLAGSTLNLALSLTVFTVVRLLDVLLTIILTFYLLLHTDDVWQSIIGWLPERFQKPFSDTLRRSFQNYFLGQLVSATCMALGLISGFLLLKVPFGLLFGLTVGVMALIPFGGSVGIVLVTFLVALRDIGMALQLLAVALVIQQIVENGIAPRVLGSVTGLNPFWVLISLLTGARIGGLLGVIVAVPSAVMIKEALGAIRSMKPLVPAPDHNQDPLYFKNQEEVQPLPPRP” belongs “failed”.
To “MTEQAQYRDPRLVILYDRLNRWGADDDFFLALANETPGCRLLDLGCGTGRLTTALARAGHQVTGLEPARASLEVAQRKPGAEAVCWLQGSAQDAPTAAFDLCLMTAHVAQVFVEDDAWQDVLQHIHRALVPGGRLSFDMRDPAARAWDTWDSAGKRERLTLLDGSEAETWCDVLDVAGPIVSGPVVHFAEHTRFLPGQDVLTSTSRLRFRREDELRASLQAAGFAVEQVYGGWHGEPVGTGCGELVVVARRPG” belongs “failed”.
Next, “MTESFTRRERLRLRRDFLLIFKEGKSLQNEYFVVLFRKNGLDYSRLGIVVKRKFGKATRRNKLKRWVREIFRRNKGVIPKGFDIVVIPRKKLSEEFERVDFWTVREKLLNLLKRIEG”: “not failed”; “MTESNFDLPIISVIIPAYNCEKTIKKTIDSVLDQSFTDFELIVINDGSQDATLDIVSQIEDSRIKIFSFENAGGNVSRNRGLNLAVGKFISFLDADDIWTPNKLESQLEALHNNPGFHVAYSWTDYIDEDGNFLISGRRVTLNGDVYKKLFINNFLENGSNPLICKEALIALGGFDESLKAAQDWDMWLRLANKYSFVAVPYVQILYRVSSNSLSSNLVRQEKACKQVLEKAYQARPAIGNHILHLSIANLYKYLACKALQKPYSRSKGLAAVKFIWQYFLYDSSRMRRINSTLKLLFKALIIIILPAGLSTELLAKMRTKSLNPQLSAISGS”: “failed”.
Consider “MTETNESSGVNLKKDVKFSIIIPAHNEEKYIRKCLDSIAKASEAYKEQTEVIVVLNRCTDKTEEIAKSYNCVTLKNNDKNLSKIRNAGAKIANGEIIVTIDADTIMTESMLSNVDKYLASGKYIGGGVNGKFERISLGIFLSAMLIIIPLLFKYGAISVGIFWCYRKDFMAINGFNENMLMAEDADFAKRLKEWGKKNNKKFGTIKNGMITSCRRFDTYGDWTLLKNPKVILAYLKGNDRKYADKTYYDNQER”, for which the protein production result is “failed”.
To “MTETYVLAESPEFYQDNVTDYTGQISSSDITNIQAAIDDVKASEQKVIFVVFLSSFDGVDPETWTQQALQANGGGNVLIYALAPEERQYGIQGGTQWTDAELDAANNAAFQALSQEDWAGSALEHHHHHH” belongs “not failed”; to “MTEYVHGYSEREALRLSEQAETLEKLLHHDTVYPPGAKVLEAGCGIGAQTVILAKNNPDAEITSIDISPESLEKARENTEKNGIKNVKFLQANIFSLPFEDSSFDHIFVCFVLEHLQSPEEALKSLKKVLKPGGTITVIEGDHGSCYFHPEGKKAIEAWNCLIRVQAYMKGNSLVGRQIYPLLQESGFEKIRVEPRMVYIDSSKPELVDGFILKTIIPMVEGVKEQSLKMQIIKEEEWEKGIEELHKTAEHGGTFCYTFFKGWGTK”, “failed”; to “MTFLDKIKQGCLDGWAKYKILPSLTAAQTILESGWGKHAPHNALFGIKADSSWTGKSFDTKTQEEYQAGVVTDIVDRFRAYDSWTDSIIDHGKFLNDNPRYQAVIGETDYKKACHAIKDAGYATASGYAELLIQLIEENDLQEWDEEAIVRKEKQMISSQCREVIEFFINLVNAGVGVDKDGFAGWQCTDVPCYAAKHWFGVDLWGNAIDLLDSAAAVGWEVHRMPTDANPQTGAFFVQSVPYHQFGHTGVVIEDSDGYTMRTIEQNIDGNPDALYVGAPARFNTRDFTGVTGWFYPPYQGDIVTQPVSTEPQTSDTIVETAKTGTFTLDVAEINIRRWPSLTSEVVGSYKQGDTISFDSEGYANGYYWISYVGGSGMRNYTAIGITDKDGNIISLWGKLNLEHHHHHH”, “not failed”.
Next, “MTFTSNLPSSSEQSISPPASSFSSSTDTLKDIDIPHNGADLSTYSKFLALYCRSDKCDDFYSLEEKQNCKFGDQWLDFINTIHNLDFSESEVSGRVSERILPASLANKFTNNLGVAIKISEYTRDDERQIRGCVTTVENENSFNNWFVYHILDQSQLSLSEHPIVTKEVKYHELFADFFEKNLKNTIVNDQWNFGGRDYFIERSRYFTDRYLRIECILPAFPCKSSNEQKVYGSVPDKGEELALKRLIKATQDLVKIYPPGMKIWIVSDGHVFSDCIGVDDDVVSTYTTKLHELYKRVAIPGVDAIGFCGLNDLFFSGAASKVFDPKWVSDVEVAHYTGTQICPKSDLSRQILMKGCDTDAGRLRKQIAIEGHPRLHLYRGFSRFMMEDLSLLEHFQSYSRKKFKKIISMIAFNMIKRNDAYSNLVELIFPHHLRISIHAHTNSGPKFGIKVISNEQCSIVSSLEDLDEPKFEDFLHIPTPWHNCVVKVEDEKEKYFLTKSKVVKEALEKGMYDGVWKDTRFDIGEGGHFVIKKIS”: “failed”.
To “MTGEEITAAIHQVLTERMNNRHLDGFGPQSRLNADLYLDSVLMLDLLLHLELDHGITAPEEAIATAAIQTVSDLVELLAGASPATSGASDTAVADGPDVHADVYPDIKVHCVVSCLCDAVKAAGLDHRPMYFGIWDADFAVSDKFELRYHTDHISHGFFCHWFHRLYGVRVTEWYDHSAGKQSNLARLIGLVDARRPTESVMVMLDMFHLPERENKFNQYPFPHYLMVEATPDPETWQVRDPDFRWEGPIAKERILNAVAQPSVGGGYIFDRCTMRLPAAVDIGDYFLACFVSDDNPLIRRLREIVDTHLGCRDGLRLQALGDAVRELPVLSIRKWAYEHGFAFFWRELRLPNDAFLTWCDRIEELALGLPALHLKILRLAQTEDRTCAADIHQTLDRLDALETAIKVKLHEVFVAWCSHQGLTRATPRERRVGAR” belongs “failed”.
Turning to “MTGIFLQAFVYLVAAVIAVPLAKRLGLGSVLGYLIAGVVIGPIIGLVGEETTTIQHFAEFGVVMMLFLVGLELEPKMLWAMRNRLMGLGGLQVGGTVAAIMGIALYFEQPWTIALAIGLIFALSSTAIVLQTFSEKGLTKTEGGKNAFSVLLFQDIAVIPMLAFIPLLALPELVEQAQNAVQTAAQHHDDLNLVADLPGWAYGIVITASIAIVVVGGHFLSRPLLKYVASSGLREIFTATALMLVIGIAALMSLVGLSPALGTFLAGVVLANSEFRHELESNIEPFKGLLLGLFFITVGAGINFSVLFGDFWLIMALTIGVMVLKALVLFILALIFRVKGSNRWLFTLSLAQAGEFGFVLLSFSVQNHVIPFELSQTLALVVAISMFLTPGLFILFDRVILPRFETQSNERESDTIEETGTVIIAGIGRFGQIVNRLLVSNGVTTVVLDHQANQVDNMRQIGTRAYFGDATRPDMLHTAGIEHAAALVVAIDNQESSVELVKYVKHTYPKVKIIARAFDRGHGYLLRQAGADVIESETYHSALEMGGHAMKALGIHPFFVEQQKDTYKRVEARKSEMLYQAWEDDSEGERFDNNFRELFIQLEEKMAEEMRKDRHDKLSRSERGWTPPPKGYAENFDGENVQDITPPKEEAI”, the protein production entry is given as “failed”.
